# In the supplement of paper PMC7877785:
# ± gives the uncertainty stated by the source.
# Test: self-splicing fitness, log relative to wild type (ln ratio); higher = more splicing; Tetrahymena group I intron in knt gene, E. coli kanamycin selection, DiMSum; sequences stand for … in CUCUCU…GGAGGGAAAAGUUAUCAGGCAUGCACCUGGUAGCUAGUCUUUAAACCAAUAGAUUGCAUCGGUUUAAAAGGCAAGACCGUCAAAUUGCGGGAAAGGGGUCAACAGCCGUUCAGUACCAAGUCUCAGGGGAAACUUUGAGAUGGCCUUGCAAAGGGUAUGGUAAUAAGCUGACGGACAUGGUCCUAACCACGCAGCCAAGUCCUAAGUCAACAGAUCUUCUGUUGAUAUGGAUGCAGUUCACAGACUAAAUGUCGGUCGGGGAAGAUGUAUUCUUCUCAUAAGAUAUAGUCGGACCUCUCCUUAAUGGGAGCUAGCGGAUGAAGUGAUGCAACACUGGAGCCGCUGGGAACUAAUUUGUAUGCGAAAGUAUAUUGAUUAGUUUUGGAGUACUCGUGGUCG
# Outline: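 DiMSum derived fitness as the error-weighted combination of fold changes across replicates, kanamycin versus no kanamycin, normalised to wild type. E. coli BL21(DE3) held the library, which randomised all eight P1ex-region intron nucleotides within the knt kanamycin-resistance gene on pET-22b(+). Six replicate transformations grew overnight at 37°C or 30°C on LB agar with or without 25 μg/mL kanamycin, also containing 100 μg/mL carbenicillin, 50 μM IPTG and 0.2% rhamnose, and pooled colonies were amplicon-sequenced on an Illumina HiSeq 2500.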
Sequence,self-splicing fitness (ln) (30 °C),self-splicing fitness (ln) (37 °C)
UGCAAGCAAUAUUACGUCAG,-1.98 ± 0.088,-0.64 ± 0.087
GCGCAGCAAUAUUACGAGUG,-1.6 ± 0.1,-1.47 ± 0.15
GGACAGCAAUAUUACGUAUC,-0.918 ± 0.093,-0.855 ± 0.11
AUAGAGCAAUAUUACGGUUC,-3.21 ± 0.24,-1.29 ± 0.22
CACCAGCAAUAUUACGCCGC,-3.35 ± 0.2,-2.43 ± 0.29
AGUGAGCAAUAUUACGACUG,-0.0618 ± 0.23,0.551 ± 0.31
AUGUAGCAAUAUUACGAAAG,-2.59 ± 0.23,-2.2 ± 0.26
GGACAGCAAUAUUACGCAGU,-4.28 ± 0.36,-1.5 ± 0.24
UCUUAGCAAUAUUACGCGAU,-3.71 ± 0.33,-3.67 ± 0.34
UGAUAGCAAUAUUACGUCAU,-3.03 ± 0.27,-2.16 ± 0.2
CAAUAGCAAUAUUACGGCAU,-3.03 ± 0.17,-1.32 ± 0.26
GCGCAGCAAUAUUACGGACU,-0.744 ± 0.12,-0.35 ± 0.12
GCUCAGCAAUAUUACGGGGA,-0.491 ± 0.054,0.325 ± 0.075
CUAUAGCAAUAUUACGGCGC,-2.5 ± 0.28,
UAAAAGCAAUAUUACGCGAC,-3.73 ± 0.33,-2.64 ± 0.24
GCGUAGCAAUAUUACGGGCA,-0.858 ± 0.2,-0.854 ± 0.17
GAUCAGCAAUAUUACGAAAC,-0.961 ± 0.39,0.628 ± 0.41
CGCUAGCAAUAUUACGGGCG,-2.95 ± 0.28,-2.74 ± 0.44
GGAGAGCAAUAUUACGCGGA,,-1.29 ± 0.34
GAAUAGCAAUAUUACGGCCU,-0.86 ± 0.075,0.112 ± 0.12
GAUAAGCAAUAUUACGGCUA,-0.974 ± 0.12,0.143 ± 0.15
GUGCAGCAAUAUUACGUCAG,-3.02 ± 0.13,-1.83 ± 0.11
AGAAAGCAAUAUUACGUAAG,-1.61 ± 0.084,-0.0907 ± 0.095
CUGUAGCAAUAUUACGAAUC,-3.03 ± 0.35,
CGCGAGCAAUAUUACGCGAU,-3.96 ± 0.24,-3.09 ± 0.27

Sequence,self-splicing fitness (ln) (30 °C),self-splicing fitness (ln) (37 °C)
AUCAAGCAAUAUUACGGGGU,-3.94 ± 0.2,-2.48 ± 0.15
AGACAGCAAUAUUACGGAAA,-3.32 ± 0.26,-1.48 ± 0.13
UUAGAGCAAUAUUACGUACG,-0.844 ± 0.11,-1.06 ± 0.17
GUUCAGCAAUAUUACGAGAA,-1.81 ± 0.49,-2.14 ± 0.31
GGUCAGCAAUAUUACGUACU,-1.84 ± 0.12,-0.914 ± 0.13
AAAUAGCAAUAUUACGCGAC,-2.2 ± 0.17,-1.03 ± 0.2
GGAUAGCAAUAUUACGACCC,-0.96 ± 0.23,
CAACAGCAAUAUUACGUCUG,-1.89 ± 0.062,-1.38 ± 0.063
CUCCAGCAAUAUUACGAGGG,-3.65 ± 0.17,-2.89 ± 0.25
AUCGAGCAAUAUUACGUGUU,-2.9 ± 0.22,-2.42 ± 0.29
AUCGAGCAAUAUUACGGGCA,-1.99 ± 0.23,-1.32 ± 0.27
UGGCAGCAAUAUUACGGGCU,-3.06 ± 0.16,-2.02 ± 0.15
UAACAGCAAUAUUACGUGAA,-1.61 ± 0.065,-0.749 ± 0.083
GACCAGCAAUAUUACGUUAU,-0.752 ± 0.045,-0.147 ± 0.062
GGGCAGCAAUAUUACGUGAU,-1.61 ± 0.11,0.0478 ± 0.11
CAAUAGCAAUAUUACGCAAA,-3.95 ± 0.3,-2.6 ± 0.27
UGCUAGCAAUAUUACGAAAA,-2.16 ± 0.15,-1.72 ± 0.15
GUUUAGCAAUAUUACGAGUU,-4.25 ± 0.29,-2.3 ± 0.14
AUACAGCAAUAUUACGUGAG,-1.51 ± 0.06,-0.677 ± 0.097
AACGAGCAAUAUUACGAGCA,-2.69 ± 0.18,-1.97 ± 0.22
AAUGAGCAAUAUUACGCAAA,,-2.46 ± 0.48
CCUUAGCAAUAUUACGGUUG,-2.38 ± 0.1,-1.48 ± 0.098
UCAGAGCAAUAUUACGUUAC,-3.21 ± 0.37,-1.55 ± 0.29
UUAUAGCAAUAUUACGCAGU,,-1.61 ± 0.33
AUGAAGCAAUAUUACGUGCG,-0.65 ± 0.08,0.532 ± 0.11
